Reference: patent publication US20130108636A1 (US Dept. of Health and Human Services, published 2013)

B1: m36.4 (VHH)
VHH: QVQLVQSGGGLVQPGGSLRLSCAASAFDFSDYEMSWVREAPGKGLEWIGEINDSGNTIYNPSLKSRVTISRDNSKNTLYLQMNTLRAEDTAIYYCAIYGGNSGGEYWGQGTLVTVSS
notes: eAd, mutant of m36; also called m36.4 eAd
B2: m36.5 (VHH)
VHH: QVQLVQSGGGLVQPGGSLRLSCAASAFDFSDYEMSWVREAPGKGLEWIGEINDSGNTIYNPSLKSRVTISRDNSKNTLYLQMNTLSAEDTAIYYCAIYGGNSGGEYWGQGTLVTVSS
notes: eAd, mutant of m36 selected from a phage library
B3: m36.2 (VHH)
VHH: QVQLVQSGGGLIQPGGSLRLSCAASAFDFSDYEMSWVRQDPGKGLEWIGEINDRGNTIYNPSLKSRVTISRDNSKNTLYLQMNTLRAEDTAIYYCAIYGGNSGGEYWGQGTLVTVSS
notes: as for B2
B4: m36.1 (VHH)
VHH: QVQLVQSGGGLVQPGGSLRLSCAASTFDFSDYEMSWVREAPGKGLEWIGEINDSGNTIYNPSLKNRVTISRDNSKNTLYLQMNTLRAEDTAIYYCAIYGGNSGGEYWGQGTLVTVSS
notes: as for B2

biological target: T1, gp120Bal-CD4; test: ELISA, OD 450 nm
T1 construct: also called 120Bal-CD4 complex

**Q.** B1 was tested. Which “EC50 (read off the curve)” value did it give?
**A.** ~1 nM

**Q.** B2 was tested. Which “EC50 (read off the curve)” value did it give?
**A.** ~1 nM

**Q.** How did the “EC50 (read off the curve)” value turn out when B3 was run?
**A.** ~2 nM

**Q.** B4 was tested. Which “EC50 (read off the curve)” value did it give?
**A.** ~1 nM
